The assay addresses T1, GST-PKM2 (GST fusion PKM2) (UniProt P14618 1-531).
T1 construct: Pyruvate kinase M2 (PKM2); also called recombinant GST- PKM2; source: E. coli BL21 (DE3), purified (Glutathione-Sepharose 4B)
Kind of assay: pull-down; GST-PKM2 on glutathione-sepharose beads incubated with His-HDAC8 at 4 °C (overnight in the methods, 3 h in the legend); washed 5 times with PBST; SDS-PAGE and Coomassie Blue staining; GST-vector as control. Particulars: both partners purified.

T1 sequence (P14618 whole entry, the tested form may be a part): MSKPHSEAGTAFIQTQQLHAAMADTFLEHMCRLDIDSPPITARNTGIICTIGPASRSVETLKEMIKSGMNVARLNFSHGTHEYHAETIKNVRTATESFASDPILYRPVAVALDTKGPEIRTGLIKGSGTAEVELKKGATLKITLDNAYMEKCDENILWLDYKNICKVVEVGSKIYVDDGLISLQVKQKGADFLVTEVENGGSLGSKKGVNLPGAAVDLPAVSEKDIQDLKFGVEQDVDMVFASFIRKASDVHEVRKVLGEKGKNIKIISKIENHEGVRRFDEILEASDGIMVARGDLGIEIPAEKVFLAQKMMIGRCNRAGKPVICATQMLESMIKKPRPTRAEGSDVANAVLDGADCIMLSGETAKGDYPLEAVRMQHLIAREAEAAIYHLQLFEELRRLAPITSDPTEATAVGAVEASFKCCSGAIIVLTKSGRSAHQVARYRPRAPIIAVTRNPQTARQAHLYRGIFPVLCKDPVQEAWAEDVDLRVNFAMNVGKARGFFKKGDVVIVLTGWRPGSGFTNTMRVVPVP

B1: His-HDAC8 (His fusion HDAC8) (enzyme, UniProt Q9BY41 1-377, looked up)
chain: MEEPEEPADSGQSLVPVYIYSPEYVSMCDSLAKIPKRASMVHSLIEAYALHKQMRIVKPKVASMEEMATFHTDAYLQHLQKVSQEGDDDHPDSIEYGLGYDCPATEGIFDYAAAIGGATITAAQCLIDGMCKVAINWSGGWHHAKKDEASGFCYLNDAVLGILRLRRKFERILYVDLDLHHGDGVEDAFSFTSKVMTVSLHKFSPGFFPGTGDVSDVGLGKGRYYSVNVPIQDGIQDEKYYQICESVLKEVYQAFNPKAVVLQLGADTIAGDPMCSFNMTPVGIGKCLKYILQWQLATLILGGGGYNLANTARCWTYLTGVILGKTLSSEIPDHEFFTAYGPDYVLEITPSCRPDRNEPHRIQQILNYIKGNLKHVV
notes: Histone deacetylase 8 (HDAC8)
B1: the binding result is “binds”.

The values are drawn from paper PMC7719180, “HDAC8-dependent deacetylation of PKM2 directs nuclear localization and glycolysis to promote proliferation in hepatocellular carcinoma” (Cell Death & Disease, 2020).
